Experimental data published in the supplement of paper PMC9170038.

System: MS2 coat protein
Experiment: apparent KD of MS2 coat protein; designed switch direction (-1 OFF switch, 1 ON switch): -1; higher = weaker reporter binding
Summary of the method: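 An oligonucleotide input, 200 uM small-molecule ligand, or no input was present during titration of SNAP-549-labelled MS2 coat protein, which was doubled from 0.7 or 1.5 nM to 3 µM. Designed RNA switches had been transcribed on Illumina chips by stalled E. coli RNA polymerase. Apparent KD per design is the median over clusters of curves fitted to normalised cluster fluorescence.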

[1] = Eterna round: R95, input ligand: microRNA oligo, concentration not stated
[2] = Eterna round: R95, input ligand: FMN 200 uM
[3] = Eterna round: R95, input ligand: none
[4] = input ligand: microRNA oligo, concentration not stated

Sequence	apparent KD of MS2 coat protein (input ligand: FMN 200 uM) [nM]	apparent KD of MS2 coat protein (input ligand: none) [nM]	apparent KD of MS2 coat protein [1] [nM]	apparent KD of MS2 coat protein [2] [nM]	apparent KD of MS2 coat protein [3] [nM]	apparent KD of MS2 coat protein [4] [nM]
CGCACGUAAGGAUAUACAUGAGGAUCACCCAUGUGUAAAUACUGCAACGUGGUGAAUAGUAGAAGGUACGAUGC [Eternabot (L2) Solution 56] (Eterna round: R97, puzzle: Exclusion 3)	55.5	18.3	–	–	–	–
GGUCCUCUGGUGAGGAUAUCUACCCAGGCAGCUGGAGAGAAGGCACAUGAGGAUCACCCAUGUAGCAGAAAACC [Enremadi] (puzzle: Brourd's mod of Exclusion 4)	–	–	9.56	–	–	–
GGCACCGUAGGAUAUUGUGGUGCAGACAUGAGGAUCACCCAUGUUGAUCCGGGACUGCAGCGAGAAGGACGGGAAA [Eternabot (Original) Solution 2] (Eterna round: R97, puzzle: Exclusion 5)	284	344	–	–	–	–
UAGAUGUGAGGAUAUACAUGAAUGCAGGAUCGUGUGGUGCUACAUGAGGAUCACCCAUGUAGAAGGCACGUCUU [Mod 9 R3 JL-ex2-2.29 - Jieux - Exclusion 2] (Eterna round: R97, puzzle: Exclusion 2)	20	13.9	–	–	–	–
GACACUCAUGUAAGUAUUUACAUGAGGAUCACCCAUGUACCACUAGAAGACUAGGGAACGAAACGAGCUGGCUGUCA [Eternabot (Original) Solution 6] (Eterna round: R97, puzzle: Sensor, turn-off variant 1)	1290	567	–	–	–	–
CCUCUACAUGAGGAUCACCCAUGUGAGGAUAUGUUGACGAGCCUGAAAAGGCUGGUCAACAGAAGGCAUAUGUA [Exclusion 1 (Mod 2 solution 16 by Eternabot)] (Eterna round: R97, puzzle: Exclusion 1)	40.3	18.9	–	–	–	–
UAUUAGCAAGUAAGAUCCCACAUGAGGAUCACCCAUGUGCUCGUCAUAUCACGUACUGUGAGGAAACUCACGGUACG [Sensor-V1 #85] (Eterna round: R97, puzzle: Sensor, turn-off variant 1)	114	128	–	–	–	–
CAGCUGAAAGUGAGGAUAUAGACUGCCUCGGCAGUCUAGAAGGCACAUGAGGAUCACCCAUGUCUCAACAGCUG [BmEx4/1-B2] (Eterna round: R97, puzzle: Brourd's mod of Exclusion 4)	70.2	11.3	–	–	–	–
CUAGCUUCGGCUAGUACAAGCUUUUUGCUCGUCUUAUUAACAUGAGGAUCACCCAUGUUAAUGAGACCUCAUGUAUU [Sensor v3 - turn-off variant 2 - 9] (puzzle: Sensor v3, turn-off variant 2)	–	–	15.2	12.7	11.1	–
AAUAAAGUAGGAUAUACAUGAGGAUCACCCAUGUCCCACCCGUUACCUAUGACCAUAUGUAGAAGGACUAAUAA [Exy#3] (Eterna round: R97, puzzle: Exclusion 3)	80	59.1	–	–	–	–
CCAGAGAGCGAAGGAUAUUCUGUUCAAUGGGUCGACCUAGACAUGAGGAUCACCCAUGUCGCCCGGGAGAAGGUCGCAAGGAUC [Eternabot solution 18] (Eterna round: R96, puzzle: Exclusion NG 2)	18.7	18.4	–	–	–	13.3
UCCAGACAUGAGGAUCACCCAUGUGAGGAUAUGAUGCGAUCGUCGAAAGACGAUAGCAUCAGAAGGCACGUAUG [Fiskers Ex 1 - 15] (puzzle: Exclusion 1)	–	–	32.6	–	–	–
GGUGCGUAUGUGAGGAUAUGCUGGUCCUUGGCUCGGCAGAAGGCACAUGAGGAUCACCCAUGUGGUGUCGUUCC [salish99_Bmod_ex4_055] (puzzle: Brourd's mod of Exclusion 4)	–	–	42.5	–	–	–
UUAAUUAAUUAAUUAUAAGAUCAACAUGAGGAUCACCCAUGUGAGGAUAUCAGCUCGUUUAGAGCUGAGAAGGCACAAAUAAUU [ExNG3/16-B2] (Eterna round: R96, puzzle: Exclusion NG 3)	208	49.8	–	–	–	45.7
GCUUGUGGGCAAGGAUAUCCUACGUUGUUCUGGUUCGUGUCUGUCACAUGAGGAUCACCCAUGUGGGAGAAGGUGCAUUUGGGU [Design 59] (Eterna round: R96, puzzle: Exclusion NG 2)	17.9	18	–	–	–	13.8
AUCAUGUAAGGAUAUCGUGCAAGUUUCAAAAGAGGCUUGUGCGAGAAGGUACAUGAGGAUCACCCAUGUAGGUU [Omei Ex4 B10] (Eterna round: R97, puzzle: Exclusion 4)	57.8	584	–	–	–	–
UAGAUGGGAGGAUAUACAUAGAUACAGAUUCAUGUAGUGCUACAUGAGGAUCACCCAUGUAGAAGGCCCGUCUU [JL-ex2-2.18 Mayanne mod] (Eterna round: R96, puzzle: Exclusion 2)	407	37.9	–	–	–	33.2

Sequence	apparent KD of MS2 coat protein (input ligand: FMN 200 uM) [nM]	apparent KD of MS2 coat protein (input ligand: none) [nM]	apparent KD of MS2 coat protein [1] [nM]	apparent KD of MS2 coat protein [2] [nM]	apparent KD of MS2 coat protein [3] [nM]	apparent KD of MS2 coat protein [4] [nM]
AGGGAUAAAGGAUAUACAUGAGGAUCACCCAUGUUGAGGAAAGUGAGAUGAGGAGGAAGUAGAAGGUUAGGCGG [JR_Exclu3_Sub084] (puzzle: Exclusion 3)	–	–	33.9	35.7	31.4	–
AAAUAGCAAGUUUGAUCCUACAUGAGGAUCACCCAUGUGUUCGUCUUAUUUGAAGACAACACAAAAGUGUUGUCUUA [Omei Mir OFFv1 B1] (Eterna round: R97, puzzle: Sensor, turn-off variant 1)	1100	1300	–	–	–	–
GCUGGUCAAGGAUAUACAUGAGGAUCACCCAUGUGGUCACGUGACGAUAGUCACGAAUGUAGAAGGUGACCAGC [E3/3-C1] (Eterna round: R97, puzzle: Exclusion 3)	51.1	260	–	–	–	–
CCGCGACAUGAGGAUCACCCAUGUUAGGAUAUGUGCGCCAACCAAGGAAUUGGUAGGUACAGAAGGAGCUGGGU [Eternabot (L2) Solution 97] (Eterna round: R97, puzzle: Exclusion 1)	149	56.3	–	–	–	–
CAAAAGCUAGGAUAUCGCAAACAAGACAUGAGGAUCACCCAUGUGUCCAUGGCCGACCUCCGAGAAGGAGCAAUAU [Dieded] (puzzle: Exclusion 5)	–	–	27.9	32.5	30.5	–
AGAGAAUAGUCAGGAUAUGAGAAUAGAUAGAGCUCAGAAGGGACACAUGAGGAUCACCCAUGUGAAGUCUUGAGGCUGCGUGGA [Prohibition 20 - Jieux - Exclusion NG 1] (Eterna round: R96, puzzle: Exclusion NG 1)	–	–	–	–	–	11.3
UUUAAACAUGAGGAUCACCCAUGUAAGGAUAUACGAAUGCAGACACACACGGAUGCAAGUAGAAGGUACAAUGC [Design #9] (Eterna round: R97, puzzle: Exclusion 1)	37.6	42.6	–	–	–	–
UACAUGAGGAUCACCCAUGUUUUGUCGUGUAUGGUAUUUAUCUAGGAUAUCAAUUGAAUUAUUUAUGAGAAGGAGAAUAUUAAU [JMF's solution 58] (Eterna round: R96, puzzle: Exclusion NG 3)	42	49	–	–	–	36.4
CCAAAGCGAGGAUAUACUUGCGACCCAAGCGUGGAAGACAUACUUGAGGAUCACCCAAGUAGAAGGCGCGCCAA [Dibixela] (Eterna round: R97, puzzle: Exclusion 2)	145	92	–	–	–	–
ACCUCACAUGAGGAUCACCCAUGUCAGGAUAUGUACCCGAUCAAGUCAGAGAUCGGAAGCAGAAGGGACUGCGG [Bemabebe] (puzzle: Exclusion 1)	–	–	99.3	26.5	86.5	–
UACAUGAGGAUCACCCAUGUUUUGUCGUGUAUGGUAUUUAUCUAGGAUAUCAAUUUACUUAUUUAUGAGAAGGAGAAUAUUAAU [JMF's solution 19] (Eterna round: R96, puzzle: Exclusion NG 3)	–	–	–	–	–	26.8
GUAUGUUCCUGAGGAUAUCGAGCCAUCGACCGCCGAGAAGGCAGAGACAUGAGGAUCACCCAUGUGAAGUAAUGGCGAUGAGAA [Eternabot solution 13] (Eterna round: R96, puzzle: Exclusion NG 1)	15.4	17	–	–	–	10.8
CUAUCUAGAGGAUAUACGAGAUCGAAAGAUCGGCGAUCCCUACAUGAGGAUCACCCAUGUAGAAGGCUAGAUAG [Mod 16 - Jieux - Exclusion 2] (Eterna round: R97, puzzle: Exclusion 2)	99.5	18.6	–	–	–	–
UAGUGCUGAGGAUAUACAUGAGGAUCACCCAUGUGCCUUUAACUUAAAGUGUGCACAAGUAGAAGGCGGUGCAA [Eternabot (L1) Solution 93] (Eterna round: R97, puzzle: Exclusion 3)	20	19.5	–	–	–	–
CCACUUACUGAGGAUAUUGCAUCACCCGACUGAUAAGAAGGCAGAACAUGAGGAUCACCCAUGUGGGUACUCAC [Bingo-Bango-9] (Eterna round: R97, puzzle: Exclusion 6)	207	155	–	–	–	–
GACCUACAUGAGGAUCACCCAUGUGAGGAUAUAUUGUUAUUUAUAAUAUUUUUUAGUGGUAGAAGGCGCGUGAU [JR_Exc1_Sub018] (Eterna round: R97, puzzle: Exclusion 1)	17.9	20.2	–	–	–	–
GCUUCGUCUGUGGGUGGUGACAUGAGGAUCACCCAUGUUUUGCUCGUCUUGUGCCGGGCCCGGCGCCCGGGCCCGGC [-38.7, -63.8, A 8%] (Eterna round: R97, puzzle: Sensor, turn-off variant 1)	721	955	–	–	–	–
